Measured values published in IntAct's records for PubMed 14707132.

Biological target: pak1_rat Pak1 (UniProt P35465)
Sequence (P35465 whole entry): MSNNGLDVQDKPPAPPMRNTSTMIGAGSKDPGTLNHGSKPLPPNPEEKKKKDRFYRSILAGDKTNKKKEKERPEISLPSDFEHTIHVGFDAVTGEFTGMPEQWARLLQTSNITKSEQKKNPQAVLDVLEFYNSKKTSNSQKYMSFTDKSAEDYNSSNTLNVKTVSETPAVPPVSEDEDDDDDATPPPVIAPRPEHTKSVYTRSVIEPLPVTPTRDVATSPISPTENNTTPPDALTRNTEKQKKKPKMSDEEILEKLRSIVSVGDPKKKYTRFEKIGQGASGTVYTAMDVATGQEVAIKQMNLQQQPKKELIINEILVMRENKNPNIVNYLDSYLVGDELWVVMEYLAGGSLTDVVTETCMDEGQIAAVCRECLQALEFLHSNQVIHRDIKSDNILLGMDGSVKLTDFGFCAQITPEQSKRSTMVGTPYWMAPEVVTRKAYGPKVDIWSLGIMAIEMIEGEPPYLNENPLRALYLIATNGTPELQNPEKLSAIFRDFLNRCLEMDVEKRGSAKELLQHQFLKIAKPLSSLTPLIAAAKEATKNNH

Sequence of Serine/threonine-protein kinase OSR1 (Homo sapiens), O95747 K46A (O95747 whole entry K46A): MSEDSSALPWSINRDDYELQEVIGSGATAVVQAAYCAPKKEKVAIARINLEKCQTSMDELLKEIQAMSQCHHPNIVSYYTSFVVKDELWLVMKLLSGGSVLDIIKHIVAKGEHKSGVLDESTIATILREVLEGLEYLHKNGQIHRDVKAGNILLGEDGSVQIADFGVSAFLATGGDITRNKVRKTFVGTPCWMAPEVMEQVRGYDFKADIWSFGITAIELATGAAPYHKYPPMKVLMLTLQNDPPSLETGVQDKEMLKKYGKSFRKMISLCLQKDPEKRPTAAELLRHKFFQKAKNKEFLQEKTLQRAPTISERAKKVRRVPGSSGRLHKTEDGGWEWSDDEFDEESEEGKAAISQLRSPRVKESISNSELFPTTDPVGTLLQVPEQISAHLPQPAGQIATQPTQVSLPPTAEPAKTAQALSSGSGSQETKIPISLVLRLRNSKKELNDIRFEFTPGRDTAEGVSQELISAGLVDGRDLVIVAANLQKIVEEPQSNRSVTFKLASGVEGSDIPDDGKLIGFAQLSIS

Substance: Serine/threonine-protein kinase OSR1 (Homo sapiens), O95747 K46A
- effect of a mutation on the interaction: decreasing interaction
